Holding throughout (type): biochemical
The subject of series [1] is template containing a cis-syn cyclobutane thymine-thymine dimer (CPD). Put plainly: Translesion replication assay (primer extension), CPD. As to conditions: gel-extension assay, 60° C. The method, then: Template primers 22 (undamaged) or 23 (containing a synthetic abasic site) were synthesized by Lofstrand Laboratories (Gaithersburg, Md.). Template primer 24 (containing a single cis-syn thymine dimer), was synthesized as described (34). Primer 25 was ^32P-labeled and annealed to one of the three templates 22, 23, 24 (at a primer template ratio of molar 1:1.5) and extended in 40 mM Tris.HCl at pH 8.0, 5 mM MgCl2, 100 μM of each dNTP, 10 mM DTT, 250 μg/ml BSA, 2.5% glycerol, 10 nM primer-template DNA and 0.1 Unit of polymerase at 60° C. for various times.
Primer extension assays were essentially as described in (Ghadessy et al., 2004). Briefly, undamaged oligonucleotides and a 51mer containing a synthetic abasic site were synthesized by Lofstrand Laboratories (Gaithersburg, Md.) using standard techniques and were gel purified prior to use. A 20mer primer (LES—20 P) with the sequence 5′-[…]-3′ (SEQ ID NO: 99) was 5′-labeled with [^32P]ATP (5000 Ci/mmole; 1 Ci=37 GBq) (Pharmacia) using T4 polynucleotide kinase (Invitrogen, Carlsbad Calif.). Radiolabeled primer-template DNAs were prepared by annealing the 5′[^32P] labeled 20mer primer to one of the two following 51mer templates (at a primer template ratio of molar 1:1.5). 1) undamaged DNA (UNDT51T); 5′-AGCTACCATGCCTGCACGAATTCGGCATCCGTCGCGACCACGGTCGCAGCG-3′ (SEQ ID NO: 100); 2) an oligo (LABA51T) containing a synthetic abasic site (indicated as an X in bold font); 5′-AGCTACCATGCCTGCACGACA XCG GCATCCGTCGCGACCACGGTCGCAGCG-3′ (SEQ ID NO: 101). Standard replication reactions of 10 contained 40 mM Tris.HCl at pH 8.0, 5 mM MgCl2, 100 μM of each ultrapure dNTP (Amersham Pharmacia Biotech, NJ), 10 mM DTT, 250 μg/ml BSA, 2.5% glycerol, 10 nM 5′[32P] primer-template DNA and 0.1 Unit of polymerase. After incubation at 60° C. for various times reactions were terminated by the addition of 10 μl of 95% formamide/10 mM EDTA and the samples heated to 100° C. for 5 min. Reaction mixtures (5 μl) were subjected to 20% polyacrylamide/7 M Urea gel electrophoresis and replication products visualized by PhosphorImager analysis.

The test system of series [2] is primer-template DNA substrates. Put plainly: Processivity primer extension assay with and without trap DNA. The method, then: Processivity was measured using a primer extension assay the presence and absence of trap DNA. Termination probabilities were calculated according to the method of Kokoska et al.
Oligonucleotide primer 32 (5′-GCGGTGTAGAGACGAGTGCGGAG-3′) (SEQ ID NO: 117) was ^32P-labelled and annealed to the template 33 (5′-CTCTCACAAGCAGCCAGGCAAGCTCCGCACTCGTCTCTACACCGCTCCGC-3′ (SEQ ID NO: 118)) (at a primer/template ratio of molar 1/1.5). wtTaq (0.0025 nM; 0.025 nM; 0.25 nM), M1(0.05 nM; 0.5 nM; 5 nM), and M4 (0.05 nM; 0.5 nM; 5 nM) were preincubated with the primer-template DNA substrates (10 nM) in 10 mM Tris-HCl at pH 9.0, 5 mM MgCl2, 50 mM KCl, 0.1% Triton X 100 at 25° C. for 15 min. Reactions were initiated by addition of 100 μM dNTPs with or without trap DNA (1000-fold excess of unlabeled primer-templates). Reactions were performed at 60° C. for 2 min. […] Thus, in the presence of trap DNA, all DNA synthesis resulted from a single DNA binding event. Gel band intensities were calculated using a Phosphoimager and ImageQuant (both Molecular Dynamics) software. Percentage of polymerase molecules, which extended primers to the end of the template was calculated using the formula: In×100%/(I1+I2+ . . . +In), where In is the intensity of the band at position 22 or 23; I1, I2 . . . is the intensity of the band at position 1, 2 . . . . Termination probabilities (τ) were calculated according to the method of Kokoska et al^1, whereby t at a particular template position was calculated as the intensity of the band at this position divided by the sum of the intensity of this band and the band intensities of all longer products.

Series [3] concerns primer-template duplex, correct or incorrect incoming dNTP. As to the kind of experiment: Steady-state single nucleotide incorporation kinetics, gel-based assay. The method, then:
Kinetic parameters were determined using a gel-based assay essentially as described (16). Primers 15, 16, 17 (3′ base=G, C, A respectively) were ^32P-labeled and annealed to one of template strands 18, 19, 20 (template base=C, G, A respectively) or 21 (template base C different context). Duplex substrates were used at 50 nM final concentration in 1× Taq buffer with various concentrations of enzyme and dNTP. Reactions were carried out at 60° C. for times whereby <20% of primer-template was utilized at the highest concentration of dNTP.
Extension and incorporation kinetics of M1 and M4 for a selection of mismatches were measured using a gel-based steady-state kinetic assay (Goodman) (Tables 1 & 2). M1 and M4 respectively extend a C•C mispair 390 and 75-fold more efficiently than wtTaq. […] The gain in extension efficiency derives predominantly from increased relative Vmax values for the mutant polymerases, while Km for nucleotide substrates remains largely unchanged. For most DNA polymerases the relative efficiency of extending a given mispair (f0ext) is similar to the relative efficiency of forming it (finc) (Goodman 1993, Goodman 1990, Washington 2001). Indeed, M1 and M4 respectively incorporate dCTP opposite template base C 206- and 29-fold more efficiently than wtTaq (Table 2).

Entries after “also recorded” stand apart in the source; their conditions may differ.

“wtTaq: Thermus aquaticus (Taq) wild type DNA polymerase [reference compound]”: in series [1], the “CPD bypass in primer extension” value is listed as “only able to insert a base opposite the 3′T of the dimer after prolonged reaction conditions”. The “bound polymerase that extended primers to the end of the template” value in series [2] (in the presence of trap DNA (single DNA binding event)) is 13%. The termination probability in series [2] (positions 6 and 7) is reported as 5%. Also, the Km (as a rule, the substrate concentration at which the rate is half of its maximum) amounted to 1330 µM in series [3] (base pair C: dCTP); 0.0366 µM in series [3] (base pair C: dGTP, correct dNTP); 259 µM in series [3] (base pair G: dATP); 0.016 µM in series [3] (base pair G: dCTP, correct dNTP); 365 µM in series [3] (base pair G: dGTP); 1.64 µM in series [3] (base pair G: dTTP). Further, the “Ratio of finc, finc (mutant polymerase)/finc (wtTaq)” value in series [3] (base pair C: dCTP), in series [3] (base pair G: dATP), in series [3] (base pair G: dGTP) and in series [3] (base pair G: dTTP) was 1 each time. The “finc, f (incorrect dNTP)/f (correct dNTP)” value in series [3] (base pair C: dCTP) is listed as 3.86 × 10^−8; in series [3] (base pair G: dATP), 8.27 × 10^−5; in series [3] (base pair G: dGTP) it was 1.7 × 10^−6; in series [3] (base pair G: dTTP) it was 1.65 × 10^−4. The Vmax is listed as 3.3 % Min^−1 in series [3] (base pair C: dCTP (template base: incoming nucleotide)); 2356.02 % Min^−1 in series [3] (base pair C: dGTP (template base: incoming nucleotide), correct dNTP); 1973.68 % Min^−1 in series [3] (base pair G: dATP (template base: incoming nucleotide)); 1477 % Min^−1 in series [3] (base pair G: dCTP (template base: incoming nucleotide), correct dNTP); 57.47 % Min^−1 in series [3] (base pair G: dGTP (template base: incoming nucleotide)); 25.08 % Min^−1 in series [3] (base pair G: dTTP (template base: incoming nucleotide)).

B1: 3A10: third round clone, abasic site bypass; SEQ ID NO: 86 (protein)
chain: MAMLPLFEPKGRVLLVDGHHLAYRTFFALKGLTTSRGEPVQVVYGFAKSLLKALKEDGYKAVFVVFDAKAPSFRHKAYEAYRAGRAPTPQDFPRQLALIKELVDLLGFTRLEVPGYEADDVLATLAKKAEKEGYEVRILTADRGLYQLVSDRVAVLHPEGHLITPEWLWEKYGLRPEQWVDFRALVGDPSDNLPGVKGIGEKTALKLLKEWGSLENLLKNLDRVKPENVREKIKAHLEDLRLSLELSRVRTDLPLEVDLAQGREPDREGLRAFLERLEFGSLLHEFGLLESPKALEEAPWPPPEGAFVGFVLSRKEPMWADLLALAAARGGRVHQAPEPYKALRDLKEARGLLAKDLSVLALREGLGLPPGDDPMLLAYLLDPSNTTPEGVARRYGGEWTEEAGERAALSERLFANLWGRLEGEERLLWLYREVERPLSAVLAHMETTGVRLDVAYLRALSLEVAEEIARLEAEVFRLAGRPFNLNSRDQLERVLFDELGLPAIGKTEKTGKRSTSAAVLEALREAHPIVEKILQYRELTKLKSTYIDPLPDLIHPRTGRLHTRFNQTATATGRLSSSDPNLQNIPVRTPLGQRIRRAFIAEEGWLLVVLDYSQMELRVLAHLSGDENLIRVFQEGKDIHTQTASWMFGVPPEAVDPLMRRAAKTVNFGVLYGMSAHRLSQELSIPYEEAVAFIERYFQSFPKVRAWIEKTLEEGRRRGYVETLFGRRRYVPDLNARMKSVRGAAERMAFNMPVQGTAADLMKLAMVKLFPRLREMGARMLLQVHDELLLEAPQARAEEVAALAKEAMEKAYPLAVPLEVEVGIGEDWLSAKE
modifications: Mutant Taq polymerase
On to B1, for which, in series [1] (listed as A10), the “CPD bypass in primer extension” value is “clearly better at both abasic site and CPD extension and bypass than both wild type and M1; also recorded: superior elongation and bypass when compared to wild type”.
